Test results published in the supplement of paper PMC11780869.

System: Bacillus subtilis
Assay: cleaved RNA product abundance (RNA/gDNA barcode ratio) relative to median wild-type variant (ratio to wild type); higher = more accumulation of the downstream cleavage product
Outline: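 Cleaved product abundance was measured with barcoded reporter mRNAs (truncated aprE or tetM) carrying mutagenized RNase Y cleavage-site windows in the B. subtilis chromosome. Cultures in LB at 37°C grew from OD600 0.0003 to 0.3. Gel-selected cleaved RNA was reverse transcribed and barcode-sequenced with genomic DNA barcodes, and the RNA:gDNA barcode ratio per construct was scaled to the median construct bearing the unmutated site.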

[1] = experiment (reporter, strain, medium): exp 4a: truncated aprE reporter, strain BJT201 with 2% xylose (RNase J1 expressed), cleavage site: cggR-gapA (positions -7 to +36 mutated)
[2] = experiment (reporter, strain, medium): exp 2b: truncated aprE reporter, strain BJT200, cleavage site: cggR-gapA (positions -7 to +36 mutated)
[3] = experiment (reporter, strain, medium): exp 8a: truncated aprE reporter, strain BJT201 with 2% xylose (RNase J1 expressed), cleavage site: glnRA (positions -5 to +31 mutated)

Row | Sequence | cleaved RNA product abundance [1] | cleaved RNA product abundance [2] | cleaved RNA product abundance [3]
1 | ACAGACGAAGGAGCCGCAAAGAAGTTATTAAAGGATGAATAATCCCTCAATATTAATATCTCTCACTTATTTAAA | 0.0494 |  | 
2 | ACAGACGAAGGAGCCGCAAAGAAGTTATTAAGGAATGAATAATCCCTCAATTTAAATATCTCTCACTTATTTAAA | 0.0591 | 0.0901 | 
3 | ACAGACGAAGGAGCCGCAAAGAAGTTATGAAAGGATGAATAATCCCTCAATATAAATATCTCTCACTTATTTAAA | 0.178 |  | 
4 | CGACATGTCCCGCTTCTTTCATTAATCAGTTAGCAACTGTTTTACTATATACATTTACCTTTTAAGAGGAGGAAT |  |  | 0.611
5 | CGACATGTCCCGCTTCTTTCATTAATACGTTAGTAACTGTTTTGCTAAATACATTTACCTTTTAAGAGGAGGAAT |  |  | 0.285
6 | CGACATGTCCCGCTTCTTTCATTAATCTGTTAGCAACTGTTTTGCTATATACATTTACCTTTTAAGAGGAGGAAT |  |  | 1.16
7 | ACAGACGAAGGAGCCGCAAAGAAGTTATTAAGGGATGAATAAATCCCTCAATATAAATATCTCTCACTTATTTAA | 0.537 |  | 
8 | ACAGACGAAGGAGCCGCTAAGAAGTTATTAAGGGACGAATAATCCCTCAATATAAATATCTCTCACTTATTTAAA | 0.573 |  | 
9 | CGACATGTCCCGCTTCTTTCATTAATTCGTTAGCAACTGTTTTGCCATATACATTTACCTTTTAAGAGGAGGAAT |  |  | 0.237
10 | ACAGACGAAGGAGCCGCAAAGAAGCTATTAAGGGATGAATAATCCCTCAATATAAAAATCTCTCACTTATTTAAA | 0.713 |  | 
11 | ACAGACGAAGGAGCCGCAAAGAAGTTCTTAAGGGATGAATAATCCCACAATATAAATATCTCTCACTTATTTAAA |  | 0.119 | 
12 | CGACATGTCCCGCTTCTTTCATTACTCCGTTAGCAACTATTTTGCTATATACATTTACCTTTTAAGAGGAGGAAT |  |  | 1.31
13 | ACAGACGAAGGAGCCGCAAAGAAGTTATTAAGGGATTAATCATCCCTCAATATAAATATCTCTCACTTATTTAAA | 1.2 |  | 
14 | ACAGACGAAGGAGCCGCAAAGAATTTATTAAGGGATGAATAATCCCTCAATATAGATATCTCTCACTTATTTAAA | 0.431 |  | 
15 | ACAGACGAAGGAGCCGCAAAGAAGTTATTAAGGGATGAATAATCCCTCAATATAAATACATCTCACTTATTTAAA | 0.712 |  | 
16 | CGACATGTCCCGCTTCTTTCATTAATCCGTTAGCAACTTTTTTCCTATATACATTTACCTTTTAAGAGGAGGAAT |  |  | 0.697
17 | ACAGACGAAGGAGCCGCAAAGAAGTTATGAAGGTATGAATAATCCCTCAATATAAATATCTCTCACTTATTTAAA | 0.0823 | 0.113 | 
18 | CGACATGTCCCGCTTCTTTCATTAATGCGTTAGCAACTGTTTTGCTATATAGATTTACCCTTTAAGAGGAGGAAT |  |  | 0.761
19 | ACAGACGAAGGAGCCGCAAATAAGTTATTAAGGGATGAATAATCCCTCAATATACATATCTCTCACTTATTTAAA | 0.64 | 0.727 | 
20 | ACAGACGAAGGAGCCGCAAAGAAGTTATTGCGGGATGAATAATCCCTCAATATAAATATCTCTCACTTATTTAAA | 0.869 |  | 
21 | ACAGACGAAGGAGCCGCAAAGAAGTTACTAAGGGATGAATAATCGCTCAATATAAATATCTCTCACTTATTTAAA | 0.0864 | 0.0765 | 

Row | Sequence | cleaved RNA product abundance [1] | cleaved RNA product abundance [2] | cleaved RNA product abundance [3]
22 | ACAGACGAAGGAGCCGCAAAGAAGTTATTCAGGCATGAATAATCCCTCAATATAAATATCTCTCACTTATTTAAA |  | 0.0983 | 
23 | ACAGACGAAGGAGCCGCAAAGAAGTTATTAAGGGGATGAATAATCCCTCAATATAAATATCTCTCACTTATTTAA | 0.237 |  | 
24 | CGACATGTCCCGCTTCTTTCATTAATCCGTTAGCAACTGTTTTGTTATATACATATACCTTTTAAGAGGAGGAAT |  |  | 0.573
25 | ACAGACGAAGGAGCCGCAAGGAAGTTATCAAGGGATGAATAATCCCTCAATATAAATATCTCTCACTTATTTAAA | 0.347 | 0.271 | 
26 | ACAGACGAAGGAGCCGCAAAGAAGTTATGAAGGGATGAATAATCCCTAAATATAAATATCTCTCACTTATTTAAA | 0.711 | 0.38 | 
27 | ACAGACGAAGGAGCCGCAAAGAAGCTATTAAGCGATGAATAATCCCTCAATATAAATATCTCTCACTTATTTAAA | 0.0691 |  | 
28 | ACAGACGAAGGAGCCGCATAGAAGTTATTAAGGGATGAATAATCCCTCAATAGAAATATCTCTCACTTATTTAAA | 0.149 |  | 
29 | ACAGACGAAGGAGCCGCAAAGAAGTTATTAAGTGATGAATAATCCCTCAATATAAATCTCTCTCACTTATTTAAA |  | 0.116 | 
30 | CGACATGTCCCGCTTCTTTCATTAATCCGTTAGTAACTGTTTTGCTATATACATTTACTTTTTAAGAGGAGGAAT |  |  | 0.36
31 | CGACATGTCCCGCTTCTTTCATTAATTCATTAGCAACTGTTTTGCTATATACATTTACCTTTTAAGAGGAGGAAT |  |  | 0.776
32 | CGACATGTCCCGCTTCTTTCATTAATTCGTTAGCAAATGTTTTGCTATATACATTTACCTTTTAAGAGGAGGAAT |  |  | 0.87
33 | ACAGACGAAGGAGCCGCAAAGAACTTATTAAGGGATGAGTAATCCCTCAATATAAATATCTCTCACTTATTTAAA | 0.421 |  | 
34 | ACAGACGAAGGAGCCGCAAAAAAGTTATAAAGAGATGAATAATCCCTCAATATAAATATCTCTCACTTATTTAAA |  | 0.14 | 
35 | ACAGACGAAGGAGCCGCAAAGCAGTTATTAATGGATGAATAATCCCTCAATATAAATATCTCTCACTTATTTAAA | 0.171 |  | 
36 | ACAGACGAAGGAGCCGCAAAGAAGTTATTAAGAGAGGAATAATCCCTCAATATAAATATCTCTCACTTATTTAAA | 0.199 |  | 
37 | ACAGACGAAGGAGCCGCAAAGAAGTTATTAAGGGATGAATAATCCCTCAAAATAGATATCTCTCACTTATTTAAA | 0.322 |  | 
38 | CGACATGTCCCGCTTCTTTCATTATTCCGTTAGCAACTGTTTTGCTATATACATTTGCCTTTTAAGAGGAGGAAT |  |  | 0.599
39 | ACAGACGAAGGAGCCGCATAGAAGTTATTAAGGGATGAATAATCCCTCACTATAAATATCTCTCACTTATTTAAA | 0.24 |  | 
40 | ACAGACGAAGGAGCCGCAAAGAAGTTATAAAGGGATGAATAATCCCTTAATATAAATATCTCTCACTTATTTAAA | 0.593 | 0.56 | 
41 | CGACATGTCCCGCTTCTTTCATTAATACGTTAGCATCTGTTTTGCTATATACATTTACCTTTTAAGAGGAGGAAT |  |  | 0.87
42 | ACAGACGAAGGAGCCGCAAAAAAGTTATTAAGGGATGAATAATCCCTCACTATAAATATCTCTCACTTATTTAAA | 0.537 |  | 

Row | Sequence | cleaved RNA product abundance [1] | cleaved RNA product abundance [2] | cleaved RNA product abundance [3]
43 | ACAGACGAAGGAGCCGCAATGAAGTTATTAAGGGATGAATAATTCCTCAATATAAATATCTCTCACTTATTTAAA | 0.517 | 0.505 | 
44 | CGACATGTCCCGCTTCTTTCATTACTCCGTTAGCAACTGTTATGCTATATACATTTACCTTTTAAGAGGAGGAAT |  |  | 0.602
45 | ACAGACGAAGGAGCCGCAAAGAAGTTATAAAGGGATGAATTATCCCTCAATATAAATATCTCTCACTTATTTAAA | 0.469 | 0.279 | 
46 | CGACATGTCCCGCTTCTTTCATTAATCCGTTAGGAACTTTTTTGCTATATACATTTACCTTTTAAGAGGAGGAAT |  |  | 0.409
47 | CGACATGTCCCGCTTCTTTCATTAATTCGTTAGCAACAGTTTTGCTATATACATTTACCTTTTAAGAGGAGGAAT |  |  | 0.913
48 | CGACATGTCCCGCTTCTTTCATTAATCCGTTAGCAACTGTTTTGCTATGTACATTTACCTTTTAAGAGGAGGAAT |  |  | 0.215
49 | ACAGACGAAGGAGCCGCAAACAAGTTATTAATGGATGAATAATCCCTCAATATAAATATCTCTCACTTATTTAAA | 0.112 | 0.0836 | 
50 | ACAGACGAAGGAGCCGCAAAGAAGTTATTAAGGGATCAATAATCTCTCAATATAAATATCTCTCACTTATTTAAA | 0.342 | 0.312 | 
51 | ACAGACGAAGGAGCCGCAAAGAAGTTATTAATGGATGAATAATCCCTCAGTATAAATATCTCTCACTTATTTAAA | 0.0629 | 0.0853 | 
52 | ACAGACGAAGGAGCCGCAAAGAAGTTATTATGGGATCAATAATCCCTCAATATAAATATCTCTCACTTATTTAAA |  | 0.23 | 
53 | ACAGACGAAGGAGCCGCAATGAAGTTATTAAAGGATGAATAATCCCTCAATATAAATATCTCTCACTTATTTAAA | 0.181 | 0.181 | 
54 | ACAGACGAAGGAGCCGCAAAGAACTTATTAAGGTATGAATAATCCCTCAATATAAATATCTCTCACTTATTTAAA | 0.108 | 0.0959 | 
55 | CGACATGTCCCGCTTCTTTCATTAATCCGTTAGCAACTGTTATGCCATATACATTTACCTTTTAAGAGGAGGAAT |  |  | 0.232
56 | ACAGACGAAGGAGCCGCAAAGAAGTTATTAATGGATGAATAATCCCTCACTATAAATATCTCTCACTTATTTAAA |  | 0.0821 | 
57 | ACAGACGAAGGAGCCGCAAAGAAGTTATTAAGGGAAGAATAATCGCTCAATATAAATATCTCTCACTTATTTAAA | 0.114 |  | 
58 | ACAGACGAAGGAGCCGCAAAGAAATTATTAAGGGATGAATAATCCCTCAGTATAAATATCTCTCACTTATTTAAA | 0.215 |  | 
59 | ACAGACGAAGGAGCCGCAAAAAAGTTATTAAGGGATGAATAATCCCTCAATATAAATCTCTCTCACTTATTTAAA | 0.362 |  | 
60 | CGACATGTCCCGCTTCTTTCATTAATCCGTTAGCAACTGTTTTGCTAAATACATTTACCTTTTAAGAGGAGGAAT |  |  | 0.524
61 | CGACATGTCCCGCTTCTTTCATTAACCCGTAAGCAACTGTTTTGCTATATACATTTACCTTTTAAGAGGAGGAAT |  |  | 0.312
62 | ACAGACGAAGGAGCCGCAAAGAAGCTATTAAGGGATGAATAATCCCTGAATATAAATATCTCTCACTTATTTAAA | 0.343 |  | 
